B1: PRT-519 (protein)
chain: MVTSVWTKGVTPPTDFIKGEDVFHAPYKAGQGWYDITKTFNGKDNLLCGAATAGNMLHWWFDQNKEYIEAYLKKHPEKQKIIFNNQELFDLKAAINTKGSQKNSELFNYFRDKAFPNLSARRLGVFPDLVLDMFINGYYLNVTKTQTTDVNRTYQEKDKRGGIFDAVFTRGVQSKLLTSRHDLKNKGLKEISDLIKQELTEGKALGLSHTYANVRINHVINLWGADFDSDGNLKAIYVTDSDTNASIGMKKYFVGVNSAGKVAISAKEIKEDNIGAQVLGLFTLSTGQDIWNQTNLEHHHHHH
B2: PRT-500 (protein)
chain: MVTSVWTKGVTPPADFTQGEDVFHAPYVANQGWYDITKAFDGGDDLLCGAATAGNMLHWWFDQNKEYIEAYLKKHPEKQKIMFGDQELLDVRKAINTKGSQKNSELFNYFRDKAFPNLSARRLGVMPDLVLDMFINGYYLNVTKTQTTDVNRTYQEKDKRGGIFDAVFTRGDQSKLLTSRHDLKNKGLKEISDLIKQELTEGKALGLSHTYANVRINHVINLWGADFDSDGNLKAIYVTDSDSNASIGMKKYFVGVNSAGKVAISAKEIKEDNIGAQVLGLFTLSTGQDIWNQTNLEHHHHHH
B3: PRT-481 (protein)
chain: MVTSVWTKGVTPPTDFIYGEDVLHAPYKAGQGWYDITKAFDGGDDLLCGAATAGNMLHWWFDQNKEQIENYLKKHPEKQKINFNGEQMFDVKEAIDTKDSQTNSELFNYFKEKAFPYLSTKHLGVFPDHVIDMFINGYRLSLTNHGPTPVKRQEKDPRGGIFDAVFGRGDQTKLLTNRHDLKNKTLKEISDLIKQELTEGKALGISHTYANVRINHVINLWGADFDAEGNLEAIYVTDSDSNASIGMKKYFVGVNSNGKVAISAKEIEEDNIGAQVLGLFTLSTGQKIWNKTNLEHHHHHH
B4: PRT-451 (protein)
chain: MVTSVWTKGVTPPANFRKIVDGNIAYYHAPYKANQGWYDITKTFNGKDDLLCGAATAGNMLHWWFDQNKDQIEAYLKEHPEKQKINFNGEQMFDVKEAIDTKDDQTNSKLFEYFKEKAFPYLSTKHLGVFPDHVLDMFINGYRLSLTNHGPTPVKEGSKDPRGGIFDAVFTRGDQSKLLTSRHDLKNKTLKEISDLIKQELTEGKALALSHTYANVRINHVINLWGADFDSNGNLEAIYVTDSDSNASIGMKKYFVGVNSAGKVAISAKEIEDDNIGAQVLGLFTLSTGQDIWNQTNLEHHHHHH
B5: PRT-449 (protein)
chain: MVTSVWTKGVTPPTDFRKIVDGNIAYYHAPYKAGQGWYDITKTFNGKDDLLCGAATAGNMLHWWFDQNKDQIEAYLKEHPEKQKINFNGEQMFDVKEAIDTKDDQTNSKLFEYFKEKAFPYLSTKHLGVFPDHVLDMFINGYRLSLTNHGPTPVKEGSKDPRGGIFDAVFTRGDQSKLLTSRHDFKEKTLKEISDLIKQELTEGKALALSHTYANVRINHVINLWGADFDSNGNLEAIYVTDSDSNASIGMKKYFVGVNSAGKVAISAKEIEDDNIGAQVLGLFTLSTGQDIWNQTNLEHHHHHH
B6: PRT-463 (protein)
chain: MVTSVWTKGVTPPANFRKIVDGNIAYYHAPYVANQGWYDITKTFNGKDDLLCGAATAGNMLHWWFDQNKDQIERYLKEHPEKQKINFNGEQMFDVKEAIDTKDSQTDSKLFEYFKEKAFPYLSTKHLGVFPDHVLDMFINGYRLSLTNHGPTPVKEGSKDPRGGIFDAVFTRGDQSKLLTSRHDLKNKTLKEISDLIKQELTEGKALGLSHTYANVRINHVINLWGADFDSEGNLKAIYVTDSDSNASIGMKKYFVGVNSAGKVAISAKEIKEDNIGAQVLGLFTLSTGQDIWNQTNLEHHHHHH
B7: PRT-453 (protein)
chain: MVTSVWTKGVTPPANFTQGEDVFHAPYKANQGWYDITKTFNGKDDLLCGAATAGNMLHWWFDQNKDQIEAYLKEHPEKQKINFNGEQMFDVKEAIDTKDDQTNSKLFEYFKEKAFPYLSTKHLGVFPDHVLDMFINGYRLSLTNHGPTPVKEGSKDPRGGIFDAVFTRGDQSKLLTSRHDLKNKTLKEISDLIKQELTEGKALALSHTYANVRINHVINLWGADFDSNGNLEAIYVTDSDSNASIGMKKYFVGVNSAGKVAISAKEIEDDNIGAQVLGLFTLSTGQDIWNQTNLEHHHHHH
B8: PRT-465 (protein)
chain: MVTSVWTKGVTPPANFTQGEDVFHAPYVANQGWYDITKTFNGKDDLLCGAATAGNMLHWWFDQNKDQIERYLKEHPEKQKINFNGEQMFDVKEAIDTKDSQTDSKLFEYFKEKAFPYLSTKHLGVFPDHVLDMFINGYRLSLTNHGPTPVKEGSKDPRGGIFDAVFTRGDQSKLLTSRHDLKNKTLKEISDLIKQELTEGKALGLSHTYANVRINHVINLWGADFDSEGNLKAIYVTDSDSNASIGMKKYFVGVNSAGKVAISAKEIKEDNIGAQVLGLFTLSTGQDIWNQTNLEHHHHHH
B9: PRT-474 (protein)
chain: MVTSVWTKGVTPPTDFRKIVDGNIAYYHAPYKAGQGWYDITKAFDGGDDLLCGAATAGNMLHWWFDQNKEQIENYLKKHPEKQKINFNGEQMFDVKEAIDTKDSQTNSELFNYFKEKAFPYLSTKHLGVFPDHVIDMFINGYRLSLTNHGPTPVKRGSKDPRGGIFDAVFTRGDQSKLLTNRHDLKNKTLKEISDLIKQELTEGKALGISHTYANVRINHVINLWGADFDAEGNLEAIYVTDSDSNASIGMKKYFVGVNSNGKVAISAKEIEEDNIGAQVLGLFTLSTGQDIWNQTNLEHHHHHH
B10: PRT-490 (protein)
chain: MVTSVWTKGVTPPTDFIYGEDVLHAPYKAGQGWYDITKTFNGKDNLLCGAATAGNMLHWWFDQNKEQIENYLKKHPEKQKIIFNNQELFDLKAAIDTKDSQLDSKLFEYFKEKAFPYLSTKHLGVFPDHVIDMFINGYRLSLTNHGPTPVKRGSKDKRGGIFDAVFTRGVQSKLLTNRHDFKEKTLKEISDLIKQELTEGKALGISHTYANVRINHVINLWGADFDAEGNLEAIYVTDSDTNASIGMKKYFVGVNSNGKVAISAKEIEEDNIGAQVLGLFTLSTGQDIWNQTNLEHHHHHH
B11: PRT-457 (protein)
chain: MVTSVWTKGVTPPTDFIKGEDVFHAPYKAGQGWYDITKAFDGGDDLLCGAATAGNMLHWWFDQNKDQIEAYLKEHPEKQKINFNGEQMFDVKEAIDTKDDQTNSELFNYFKEKAFPYLSTKHLGVFPDHVLDMFINGYRLSLTNHGPTPVKRQEKDPRGGIFDAVFGRGDQTKLLTSRHDLKNKTLKEISDLIKQELTEGKALALSHTYANVRINHVINLWGADFDSNGNLEAIYVTDSDSNASIGMKKYFVGVNSAGKVAISAKEIEDDNIGAQVLGLFTLSTGQKIWNKTNLEHHHHHH
B12: PRT-614 (protein)
chain: MQITSVWTKGVKPLTPEQFRYNNEDVIHAPYLAHQGWYDITKAFDGKDNLLCGAATAGNMLHWWFDQNKTEIEAYLSKHPEKQKIIFNNQELFDLRAAIDTKDSQTNSQLFNYFRDKAFPNLSARQLGVMPDLVLDMFINGYYLNVFKTQSTDVNRPYQDKDKRGGIFDDVFTRGDQTTLLTARHDLKNGGLNDISTIIKQELTEGRALALSHTYANVSISHVINLWGADFNAEGNLEAIYVTDSDANASIGMKKYKVGINAHGHVAISAKKIEGENIGAQVLGLFTLSSGKDIWQKLSLEHHHHHH
B13: PRT-662 (protein)
chain: MQITSVWTKGVTPLTPEQFRYNNEDVFHAPYLAHQGWYDITKAFDGKDNLLCGAATAGNMLHWWFDQNKTEIEAYLSKHPEKQKIIFNNQELFDLRAAINTKDSQTNSQLFNYFRDKAFPNLSARQLGVMPDLVLDMFINGYYLNVFKTQSTDVNRPYQDKDKRGGIFDAVFTRGDQTTLLTARHDLKNKGLNDISTLIKQELTEGRALALSHTYANVSISHVINLWGADFNAEGNLEAIYVTDSDANASIGMKKYFVGINASGHVAISAKKIEGENIGAQVLGLFTLSSGKDIWQKLSLEHHHHHH

This data set has as its target pooled human IgG (human IgG1, 2, 3 and 4).
B1 yielded an Enzyme Activity Endpoint Assay: Fab′2 of 0 ng/µL, an Enzyme Activity Endpoint Assay: Fc of 17 ng/µL, an Enzyme Activity Endpoint Assay: IgG of 0 ng/µL and an Enzyme Activity Endpoint Assay: scIgG of 0 ng/µL.
With B2, the Enzyme Activity Endpoint Assay: Fab′2 came to 25 ng/µL, the Enzyme Activity Endpoint Assay: Fc was 30 ng/µL, the Enzyme Activity Endpoint Assay: IgG was determined as 0 ng/µL and the Enzyme Activity Endpoint Assay: scIgG was determined as 0 ng/µL.
In turn, B3 registered an Enzyme Activity Endpoint Assay: Fab′2 of 1380 ng/µL, an Enzyme Activity Endpoint Assay: Fc of 429 ng/µL, an Enzyme Activity Endpoint Assay: IgG of 65 ng/µL and an Enzyme Activity Endpoint Assay: scIgG of 0 ng/µL.
On to B4, for which the Enzyme Activity Endpoint Assay: Fab′2 was 1250 ng/µL, the Enzyme Activity Endpoint Assay: Fc stood at 324 ng/µL, the Enzyme Activity Endpoint Assay: IgG was 0 ng/µL and the Enzyme Activity Endpoint Assay: scIgG was found to be 0 ng/µL.
The protein B5 yielded an Enzyme Activity Endpoint Assay (purified): Fab′2 of 1100 ng/µL, an Enzyme Activity Endpoint Assay (purified): Fc of 365 ng/µL, an Enzyme Activity Endpoint Assay (purified): IgG of 0 ng/µL and an Enzyme Activity Endpoint Assay (purified): scIgG of 0 ng/µL.
Protein B6 had an Enzyme Activity Endpoint Assay: Fab′2 of 821 ng/µL, an Enzyme Activity Endpoint Assay: Fc of 259 ng/µL, an Enzyme Activity Endpoint Assay: IgG of 0 ng/µL and an Enzyme Activity Endpoint Assay: scIgG of 0 ng/µL.
B7 gave an Enzyme Activity Endpoint Assay: Fab′2 of 1620 ng/µL, an Enzyme Activity Endpoint Assay: Fc of 607 ng/µL, an Enzyme Activity Endpoint Assay: IgG of 17 ng/µL and an Enzyme Activity Endpoint Assay: scIgG of 0 ng/µL.
In the case of B8, the Enzyme Activity Endpoint Assay: Fab′2 worked out at 504 ng/µL, the Enzyme Activity Endpoint Assay: Fc stood at 296 ng/µL, the Enzyme Activity Endpoint Assay: IgG was 111 ng/µL and the Enzyme Activity Endpoint Assay: scIgG is 501 ng/µL.
For B9 the same measures were 462 ng/µL, 156 ng/µL, 0 ng/µL and 229 ng/µL.
Consider B10, for which the Enzyme Activity Endpoint Assay (purified): Fab′2 amounted to 73 ng/µL, the Enzyme Activity Endpoint Assay (purified): Fc worked out at 243 ng/µL, the Enzyme Activity Endpoint Assay (purified): IgG was determined as 166 ng/µL and the Enzyme Activity Endpoint Assay (purified): scIgG is 875 ng/µL.
The protein B11 had an Enzyme Activity Endpoint Assay (purified): Fab′2 of 450 ng/µL, an Enzyme Activity Endpoint Assay (purified): Fc of 379 ng/µL, an Enzyme Activity Endpoint Assay (purified): IgG of 138 ng/µL and an Enzyme Activity Endpoint Assay (purified): scIgG of 337 ng/µL.
For B12, the Enzyme Activity Endpoint Assay: Fab′2 was 0 ng/µL, the Enzyme Activity Endpoint Assay: Fc came out at 0 ng/µL, the Enzyme Activity Endpoint Assay: IgG amounted to 0 ng/µL and the Enzyme Activity Endpoint Assay: scIgG worked out at 0 ng/µL.
In the case of B13, the Enzyme Activity Endpoint Assay: Fab′2 was found to be 8 ng/µL, the Enzyme Activity Endpoint Assay: Fc was 13 ng/µL, the Enzyme Activity Endpoint Assay: IgG stood at 0 ng/µL and the Enzyme Activity Endpoint Assay: scIgG is 0 ng/µL.

These data come from patent US20250027068.
